Results published in patent US20220306736A1 (Y BIOLOGICS, published 2022).
Positions count from the first letter of the chain named.

B1: SA2283 (antibody, V domains shown)
VH: QVQLVESGGGLVKPGGSLRLSCAASGFTFSDYYMSWIRQAPGKGLEWVSYISSSGSTIYYADSVKGRFTISRDNAKNSLYLQMNSLRAEDTAVYYCARRYSAYETGYFDFWGQGTLVTVSS
VL: DIQMTQSPSSLSASVGDRVTITCRASQGISTYLNWYQQKPGKAPKLLIYSTSTLQTGVPSRFSGGGSGTDFTLTISSLQPEDFATYYCQQSYSAPPTFGPGTKVEIK
B2: SA1975 (antibody, V domains shown)
VH: QVQLVESGAEIKKPGASMNVSCKASGYIFTNYYIHWVRQAPGQGLEWIGIIDPSGGSTTYAQKFQHRVTMTSDTSTSTVYMELIGLGSEDTAVYYCARDYWGSLDYWGQGTLVTVSS
VL: NFMLTQPHSVSESPGKTVTISCTRSSGSIASNYVQWYQQRPGSAPTIVIYENYLRPSEVPDRFSGSIDSSSNSASLTISGLKTEDEGDYYCQSYDSRNRNYVFGTGTKVTVL
B3: SA2290 (antibody, V domains shown)
VH: QMQLVESGAEVKKPGASVKVSCKASGYTFTSYGISWVRQAPGQGLEWMGWISAYNGNTNYAQKLQGRVTMTTDTSTSTAYMELRSLRSEDTAVYYCARDYWGSLDHWGQGALVTVSS
VL: B2 VL with E12G, A30D, S31I, V48I, N52D, Y53S, L54Q, P56T, E58G, S69R
B4: SA2291 (antibody, V domains shown)
VH: QMQLVESGGGLVKPGGSLRLSCAASGFTFSDHYMSWIRQAPGKGLEWVSSISSGGGTIYYADSVKGRFTISRDNAKNSLYLQMNSLRAEDTAVYYCARREYDSDGHYYFDYWGQGILVTVSS
VL: SYELTQPPSVLVSPGQTARITCSGDALPKQYAYWYQQKPGQAPVLVMYKDNVRPSGIPERFSGSSSGTTVTLTISRVQAEDEADYYCQSVDSSDTSVVFGGGTKLTVL
B5: SA2455 (antibody, V domains shown)
VH: QMQLVESGGGLVKPGGSLRLSCAASGFTFSDYYMSWIRQAPGKGLEWVSYISSSGSTIYYADSVKGRFTISRDNAKNSLYLQMNSLRAEDTAVYYCARPGYYYGLDVWGQGTTVTVSS
VL: DIQMTQSPSTLSASVGDRVTITCRASQSISSWLAWYQQKPGIAPKLLIYQASILDSGVPSRFSGSGSGTEFTLTISSLQPDDFATYYCQQYSSLWTFGPGTKVDIK
B6: SA2386 (antibody, V domains shown)
VH: QVQLVESGGGLVKPGGSLRLSCAASGSTFRVAWVNWVRQAPGKGLEWVGRIKSNSDGGTTDYATPMKDRFIISRDDSKNTVFLQMNSLRAEDTAVYYCARHGDANAYYYGMDVWGQGTKVTVSS
VL: QSALTQPASVSGSPGQSITISCTGTSSDVGGYNYISWYQQHPGKAPRLLIYDVSDRPSGVSNRFSGSKSANTASLTISGLQAEDEADYYCSSYASSSTLYVFGTGTKVTVL
B7: SA1956 (antibody, V domains shown)
VH: QVTLKESGPTLVKPTQTLTLTCTFSGFSLTTSGVAVAWIRQPPGKALEWLALIYWDGDERYSSSLKNRLTITKDTSKSQVVLTMTNMDPVDTATYYCARIRGYYDWGSYYSYGMDVWGQGTTVTVSS
VL: SYELTQPLSVSVALGQTARITCGGNNIGSKNVHWYQQKPGQAPVLVIYRDSNRPSGIPERFSGSNSGNTATLTISRAQAGDEADYYCQVWDSSTHVVFGGGTKLTVL
B8: SA1957 (antibody, V domains shown)
VH: QVTLRESGPTLVKPTQTLTLTCTFSGFSFNTPGEGVTWIRQPPGKALEWLALIYWDDEKHYNPSLNGRLTITKDTSKSQVVLTMTNMDPVDTATYYCARIRGYYDWGSYYSYGMDVWGQGTTITVSS
VL: B7 VL with N68D, R76G
B9: SA2287 (antibody, V domains shown)
VH: QVQLVESGGGVVQPGRSLRLSCAASGFTFSSRGMHWVRQAPGKGLEWVALIWYHGSDDSYADSVKGRFTISRDNSKNMVYLQMNSLRAEDTAVYYCANLGATDGFDIWGQGTVVTVSS
VL: QSALTQPASVSGSPGQSITISCTGTSSDVSAYNYVSWYQQHPGKAPKLMIYGVSDRPSGVSFRFSGSKSGNTASLTISGLQAEDEAYYYCNSYTTSNTWVFGGGTKLTVL
B10: SA2285 (antibody, V domains shown)
VH: QVTLRESGPTLVKPTQTLTLTCTFRGFSLNTPGMGVAWIRQPPGKALEWLGLVFWDDDKTYRPSLRNRLTITKETSKSQVVLTMTNMDPVDTATYYCARIRGYYDWGSYYSYGMDVWGQGTTVTVSS
VL: SYELTQPLSVSVALGQTARITCGGNNIGSKNVHWYQQKPGQAPVLVIYRDSNRPSGIPERFSGSNSGNTATLTISGVEAGDEADYYCQVWDSNSDQYVFGTGSKVTVL
B11: SA2390 (antibody, V domains shown)
VH: QVQLVESGGGLVQPGRSLRLSCAASGFTFDDYAMHWVRQAPGKGLEWISGISWNSGNIVYADSVKGRFTISRDNAKNSLYLQMNSLRAEDTAVYYCARETALAFDMWGPGTMVTVSS
VL: DIQMTQSPSSVSASVGDRVTITCRASQGISYWLAWYQQKPGIAPKLLIFASSRLHSGVPSRFNGSGSGTDFTLTINSLQPEDFATYYCLQATSFPYTFGQGTKLEIK

molecular target: T1, hVSIG4(S)-hFc (human); test: western blot, 100 ng hVSIG4 short-hFc (FIG. 11B)
T1 construct: also called VGIG4(S)-Fc; hVSIG4 short-hFc (S)
Protocol: (A) Binding to hVSIG4(S) and hVSIG4(L) was assayed by ELISA with the original scFv versions of the 11 human anti-VSIG4 antibodies. (B) Binding to hVSIG4(S) and hVSIG4(L) was assayed by western blotting with the 11 full-length human anti-VSIG4 antibodies. NRH: Non-reduced, heated; RH: Reduced, heated.
In each case, 100 ng of hVSIG4 long-hFc (L) and hVSIG4 short-hFc (S) were probed with the specific anti-VSIG4 antibody.

Binding result, binds:
B1, B2, B3, B4, B5, B6, B7, B8, B9, B10, B11
